Laboratory results taken from paper PMC4598300.

Target: tag-free PTEN (human) (UniProt P60484)
Assay: SEC-SAXS

stoichiometry N: 2
Substance: tag-free PTEN, P60484 1-403 (enzyme; other documents disagree on this pair)
